The values that follow come from article PMC9243006.

This assay has as its target purified complement factor H protein (UniProt P06909). The experiment in a line: SPR; CFH immobilised by amine coupling on a sensor chip; rTraT at 80, 40, 20, 10, 5 or 2.5 µg/ml.
UniProt P06909, sequence (P06909 19-1234): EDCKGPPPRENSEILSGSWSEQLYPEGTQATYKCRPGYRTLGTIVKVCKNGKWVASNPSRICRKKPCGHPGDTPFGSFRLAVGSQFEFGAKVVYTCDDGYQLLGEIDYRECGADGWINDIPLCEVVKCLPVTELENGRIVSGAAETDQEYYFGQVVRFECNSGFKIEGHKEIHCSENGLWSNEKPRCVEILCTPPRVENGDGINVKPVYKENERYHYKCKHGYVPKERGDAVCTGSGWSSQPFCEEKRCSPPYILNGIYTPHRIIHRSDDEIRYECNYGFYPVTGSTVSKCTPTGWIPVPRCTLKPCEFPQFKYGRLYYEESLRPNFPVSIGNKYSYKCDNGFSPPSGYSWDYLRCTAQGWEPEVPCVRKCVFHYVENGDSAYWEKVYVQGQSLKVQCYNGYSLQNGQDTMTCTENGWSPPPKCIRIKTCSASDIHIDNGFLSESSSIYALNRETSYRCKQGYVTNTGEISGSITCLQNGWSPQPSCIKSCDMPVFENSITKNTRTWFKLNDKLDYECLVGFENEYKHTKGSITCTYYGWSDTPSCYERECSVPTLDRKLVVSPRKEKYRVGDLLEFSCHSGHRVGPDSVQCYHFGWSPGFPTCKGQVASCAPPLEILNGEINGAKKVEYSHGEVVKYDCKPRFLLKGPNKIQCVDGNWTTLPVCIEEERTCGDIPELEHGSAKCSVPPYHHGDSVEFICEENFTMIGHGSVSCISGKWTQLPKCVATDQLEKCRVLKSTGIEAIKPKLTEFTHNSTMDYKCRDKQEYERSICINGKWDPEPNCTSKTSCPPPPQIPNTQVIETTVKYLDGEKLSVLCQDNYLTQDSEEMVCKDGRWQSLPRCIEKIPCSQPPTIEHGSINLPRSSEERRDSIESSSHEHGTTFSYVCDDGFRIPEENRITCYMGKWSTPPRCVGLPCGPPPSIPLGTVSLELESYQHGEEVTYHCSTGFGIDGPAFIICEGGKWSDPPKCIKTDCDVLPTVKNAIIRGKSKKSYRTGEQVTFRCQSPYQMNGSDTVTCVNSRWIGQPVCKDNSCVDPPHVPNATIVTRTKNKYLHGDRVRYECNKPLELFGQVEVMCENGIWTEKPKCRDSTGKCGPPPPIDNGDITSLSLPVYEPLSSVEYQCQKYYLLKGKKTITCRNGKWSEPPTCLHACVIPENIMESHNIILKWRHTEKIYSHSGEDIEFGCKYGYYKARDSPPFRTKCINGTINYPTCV

What is called Kd is the free concentration of one partner at which half of the binding sites on the other are occupied at equilibrium, for simple one-to-one binding. The low end stands for a tighter complex, the high end for a looser complex. In the case of “recombinant TraT (rTraT) (domain or fragment)”, the Kd was determined as 3.15 µM.
